The record followed here is patent publication US7122343 (WARF WISCONSIN ALUMNI RESEARCH FOUNDATION, dated 2006).

In the assay the target is T1, hMre11-hRad50 protein complex (human, UniProt P49959 2-708; Q92878 1-1312).
T1 construct: Endogenous complex from human cells; It also holds p95 and a protein of about 400 kDa; also called hMre11/hRad50 complex; hRad50/hMre11 complex
In words: co-immunoprecipitation.

T1 sequence (P49959 2-708 limits assumed, chain 1 of 2): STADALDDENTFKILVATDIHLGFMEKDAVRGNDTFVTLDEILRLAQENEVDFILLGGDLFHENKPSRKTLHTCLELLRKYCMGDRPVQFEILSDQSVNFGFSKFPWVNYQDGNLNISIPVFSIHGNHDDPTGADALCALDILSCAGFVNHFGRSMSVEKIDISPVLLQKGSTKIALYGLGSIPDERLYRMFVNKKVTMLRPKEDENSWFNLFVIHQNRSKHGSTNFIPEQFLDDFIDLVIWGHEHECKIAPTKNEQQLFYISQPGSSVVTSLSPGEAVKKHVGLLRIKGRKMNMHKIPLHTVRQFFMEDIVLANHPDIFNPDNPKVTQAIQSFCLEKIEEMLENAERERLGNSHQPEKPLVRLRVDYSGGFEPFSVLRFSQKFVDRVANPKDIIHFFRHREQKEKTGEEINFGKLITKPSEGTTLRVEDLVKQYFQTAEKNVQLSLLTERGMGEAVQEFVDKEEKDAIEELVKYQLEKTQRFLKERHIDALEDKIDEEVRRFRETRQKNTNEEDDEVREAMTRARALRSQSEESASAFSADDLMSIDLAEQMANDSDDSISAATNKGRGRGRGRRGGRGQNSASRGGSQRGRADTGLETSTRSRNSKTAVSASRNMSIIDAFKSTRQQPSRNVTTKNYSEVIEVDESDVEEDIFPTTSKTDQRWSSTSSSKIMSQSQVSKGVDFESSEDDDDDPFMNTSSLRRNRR
T1 sequence (Q92878 whole entry, chain 2 of 2): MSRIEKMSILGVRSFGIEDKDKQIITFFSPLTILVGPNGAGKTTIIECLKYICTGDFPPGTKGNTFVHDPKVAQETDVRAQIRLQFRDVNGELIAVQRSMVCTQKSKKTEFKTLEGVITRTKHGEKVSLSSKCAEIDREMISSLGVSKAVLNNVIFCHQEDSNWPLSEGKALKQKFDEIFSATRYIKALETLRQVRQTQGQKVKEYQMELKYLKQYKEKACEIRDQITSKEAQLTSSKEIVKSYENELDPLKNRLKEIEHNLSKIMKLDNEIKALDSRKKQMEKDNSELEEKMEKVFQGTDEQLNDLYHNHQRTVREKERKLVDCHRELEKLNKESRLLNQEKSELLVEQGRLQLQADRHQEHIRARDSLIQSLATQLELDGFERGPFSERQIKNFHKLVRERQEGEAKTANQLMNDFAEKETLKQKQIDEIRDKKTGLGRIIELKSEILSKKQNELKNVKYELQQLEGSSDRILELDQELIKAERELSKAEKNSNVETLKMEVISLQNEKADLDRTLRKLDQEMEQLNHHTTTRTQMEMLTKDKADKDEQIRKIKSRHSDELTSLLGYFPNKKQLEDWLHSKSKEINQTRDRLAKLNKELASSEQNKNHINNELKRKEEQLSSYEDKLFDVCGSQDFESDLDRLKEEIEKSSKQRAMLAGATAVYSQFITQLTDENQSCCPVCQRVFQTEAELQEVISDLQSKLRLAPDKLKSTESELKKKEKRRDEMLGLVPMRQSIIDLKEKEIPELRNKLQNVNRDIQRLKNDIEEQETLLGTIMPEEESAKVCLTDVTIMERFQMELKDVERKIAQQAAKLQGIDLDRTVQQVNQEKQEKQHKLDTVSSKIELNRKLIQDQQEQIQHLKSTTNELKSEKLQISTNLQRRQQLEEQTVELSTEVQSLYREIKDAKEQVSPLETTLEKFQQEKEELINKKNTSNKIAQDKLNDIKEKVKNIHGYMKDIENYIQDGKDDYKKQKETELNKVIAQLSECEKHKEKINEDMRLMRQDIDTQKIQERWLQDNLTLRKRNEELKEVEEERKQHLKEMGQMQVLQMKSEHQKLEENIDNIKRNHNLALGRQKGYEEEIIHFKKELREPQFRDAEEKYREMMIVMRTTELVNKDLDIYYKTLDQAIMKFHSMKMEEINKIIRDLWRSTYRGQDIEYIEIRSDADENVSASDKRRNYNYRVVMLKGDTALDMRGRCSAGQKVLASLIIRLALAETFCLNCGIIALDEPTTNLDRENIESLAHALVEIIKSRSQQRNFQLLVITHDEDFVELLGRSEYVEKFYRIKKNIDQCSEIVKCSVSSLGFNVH

B1: hRad51 (other, human, UniProt Q06609 2-339, looked up)
chain: AMQMQLEANADTSVEEESFGPQPISRLEQCGINANDVKKLEEAGFHTVEAVAYAPKKELINIKGISEAKADKILAEAAKLVPMGFTTATEFHQRRSEIIQITTGSKELDKLLQGGIETGSITEMFGEFRTGKTQICHTLAVTCQLPIDRGGGEGKAMYIDTEGTFRPERLLAVAERYGLSGSDVLDNVAYARAFNTDHQTQLLYQASAMMVESRYALLIVDSATALYRTDYSGRGELSARQMHLARFLRMLLRLADEFGVAVVITNQVVAQVDGAAMFAADPKKPIGGNIIAHASTTRLYLRKGRGETRICKIYDSPCLPEAEAMFAINADGVGDAKD
notes: also called human Rad51 homolog
Regarding B1, the binding result is reported as “no binding”.
